Results as given in patent US20210403582A1 (JACOBIO PHARMACEUTICALS, published 2021).
Residue numbers refer to the chain shown, from its start. Each block holds one binder with its values, some of them ahead of it.

Assays:
human LIF protein [1] = target: T1, human LIF protein (human, UniProt P15018 23-202); assay: BLI (Gator), antibody on anti-human Fc biosensor, human LIF in solution
T1 construct: Bought recombinant protein (Sino Biological / Yiqiao Shenzhou 14890-HNAH) in most assays; also called recombinant human LIF protein; rhLIF
T1 sequence (P15018 23-202 limits assumed): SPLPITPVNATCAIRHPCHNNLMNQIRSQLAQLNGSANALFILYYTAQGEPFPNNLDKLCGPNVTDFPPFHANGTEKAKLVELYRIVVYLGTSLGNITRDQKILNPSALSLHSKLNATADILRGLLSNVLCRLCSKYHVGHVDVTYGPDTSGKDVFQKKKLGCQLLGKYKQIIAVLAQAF
Method: The affinity of anti-LIF antibody to human LIF protein was determined using Gator. The anti-human LIF antibody was first diluted to 5 ug/mL with PBS and then added to A-F wells in second column of the 96-well plate (200 μL per well). […] PBS was added to A-F wells in the first and third columns (200 μL per well). The 96-well plates were placed into the instrument and detected with anti-human Fc biosensor.

human LIF protein [2] = target: T1, human LIF protein; assay: ELISA (non-heated), purified IgG on antigen coated at 0.5 µg/mL, 3-fold dilutions
human LIF protein [3] = target: T1, human LIF protein; assay: ELISA, antigen coated 0.5 ug/ml, 293S supernatant heated 70 C 5 min, antibody 1 ug/mL
Method: (§1) Each well was coated with 100 μL of 0.5 μg/ml antigen and incubate overnight at 4° C., and the plates were washed three times with 300 μL of Wash Buffer. The plates were closed with 200 μL of Closure Buffer (2% bovine serum albumin) for 60 min at room temperature. The plates were washed three times with 300 μL of Wash Buffer. 100 μL of diluted anti-LIF antibody at different concentrations was added to each well and incubate for 1 hour at room temperature. The plates were washed 4 times with 300 μL of Wash Buffer. 100 μL of HRP-labeled goat anti-human Fc secondary antibody at a dilution of 1:5000 was added and incubate for 1 hour at room temperature. The plates were washed 6 times with 300 μL of Wash Buffer. 100 μL of H₂O₂-Amplx Color Development Solution was added for developing the color for 10 min at room temperature under dark conditions. The OD 450 value was read by an enzyme marker. Heat treatment: the expression medium was heated on the PCR machine at 70° C. for 5 min and then rapidly cooled to room temperature. Perform subsequent ELISA assays as above.

human LIF protein [4] = target: T1, human LIF protein; assay: ELISA, antigen coated 0.5 ug/ml, 293S supernatant non-heated, antibody 1 ug/mL
Method: as §1

human LIF protein [5] = target: T1, human LIF protein; assay: ELISA, antigen coated 0.5 ug/ml, 293S supernatant non-heated, antibody 0.04 ug/mL
Method: as §1

human LIF protein [6] = target: T1, human LIF protein; assay: ELISA, antigen coated 0.5 ug/ml, 293S supernatant heated 70 C 5 min, antibody 0.2 ug/mL
Method: as §1

human LIF protein [7] = target: T1, human LIF protein; assay: ELISA, antigen coated 0.5 ug/ml, 293S supernatant non-heated, antibody 0.2 ug/mL
Method: as §1

human LIF protein [8] = target: T1, human LIF protein; assay: ELISA, antigen coated 0.5 ug/ml, 293S supernatant heated 70 C 5 min, antibody 0.04 ug/mL
Method: as §1

human LIF protein [9] = target: T1, human LIF protein; assay: ELISA (heated), antibody kept at 70 °C for 5 min before the ELISA, antigen coated at 0.5 µg/mL

B2: H2L2 (antibody, human IgG1, kappa)
heavy: not shown
light: DIHMTQSPSSLSASVGDRVTITCRASENIYSYLAWYQQKPGKSPKLLVYNAKTLAEGVPSRFSGSGSGTDFTLTISSLQPEDFATYYCQHHYVTPLTFGQGTKLEIKRTVAAPSVFIFPPSDEQLKSGTASVVCLLNNFYPREAKVQWKVDNALQSGNSQESVTEQDSKDSTYSLSSTLTLSKADYEKHKVYACEVTHQGLSSPVTKSFNRGEC
notes: Humanized, human IgG1 / kappa
- ELISA signal (human LIF protein [3]): 9780
- ELISA signal (human LIF protein [4]): 11700
- ELISA signal (human LIF protein [5]): 6520
- ELISA signal (human LIF protein [6]): 8720
- ELISA signal (human LIF protein [7]): 10300
- ELISA signal (human LIF protein [8]): 5260

B5: H3L1 (antibody, human IgG1, kappa, N297A)
heavy: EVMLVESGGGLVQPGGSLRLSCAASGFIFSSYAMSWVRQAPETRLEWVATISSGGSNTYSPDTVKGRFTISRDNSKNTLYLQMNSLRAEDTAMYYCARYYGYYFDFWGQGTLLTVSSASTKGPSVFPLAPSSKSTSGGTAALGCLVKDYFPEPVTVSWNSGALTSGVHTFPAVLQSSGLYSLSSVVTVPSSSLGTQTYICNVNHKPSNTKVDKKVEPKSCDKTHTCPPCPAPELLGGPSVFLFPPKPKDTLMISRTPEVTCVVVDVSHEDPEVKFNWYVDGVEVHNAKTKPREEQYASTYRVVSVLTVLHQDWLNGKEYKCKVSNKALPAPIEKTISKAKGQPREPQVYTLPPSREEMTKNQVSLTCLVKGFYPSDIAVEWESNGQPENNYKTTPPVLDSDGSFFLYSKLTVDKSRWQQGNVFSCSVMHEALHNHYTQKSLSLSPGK
light: B2 light with H3Q
notes: Humanized, human IgG1 / kappa
- ELISA signal (human LIF protein [3]): 9130
- ELISA signal (human LIF protein [4]): 11400
- ELISA signal (human LIF protein [5]): 6220
- ELISA signal (human LIF protein [6]): 7900
- ELISA signal (human LIF protein [7]): 10000
- ELISA signal (human LIF protein [8]): 5190

B6: H1L2 (antibody, human IgG1, kappa, N297A)
heavy: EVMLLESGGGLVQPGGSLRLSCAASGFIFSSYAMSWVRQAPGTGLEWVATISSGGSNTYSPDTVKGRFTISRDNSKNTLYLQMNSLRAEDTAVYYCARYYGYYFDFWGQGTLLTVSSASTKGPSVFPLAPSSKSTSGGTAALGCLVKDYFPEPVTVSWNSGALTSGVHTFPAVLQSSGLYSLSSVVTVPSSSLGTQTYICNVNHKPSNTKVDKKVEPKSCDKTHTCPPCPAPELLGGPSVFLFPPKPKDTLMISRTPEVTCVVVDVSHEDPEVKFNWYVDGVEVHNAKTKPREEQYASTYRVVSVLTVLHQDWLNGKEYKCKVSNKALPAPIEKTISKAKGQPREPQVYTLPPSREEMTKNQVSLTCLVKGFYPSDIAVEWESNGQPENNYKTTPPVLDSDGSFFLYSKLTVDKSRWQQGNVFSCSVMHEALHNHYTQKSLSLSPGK
light: B2 light
notes: Humanized, human IgG1 / kappa
- ELISA signal (human LIF protein [3]): 9830
- ELISA signal (human LIF protein [4]): 12100
- ELISA signal (human LIF protein [5]): 6680
- ELISA signal (human LIF protein [6]): 8920
- ELISA signal (human LIF protein [7]): 11200
- ELISA signal (human LIF protein [8]): 5490

B9: H2L3 (antibody, human IgG1, kappa, V domains shown)
VH: EVMLVESGGGLVQPGGSLRLSCAASGFIFSSYAMSWVRQAPGTGLEWVATISSGGSNTYSPDTVKGRFTISRDNSKNTLYLQMNSLRAEDTAMYYCARYYGYYFDFWGQGTLLTVSS
VL: DIHMTQSPSSLSASVGDRVTITCRASENIYSYLAWYQQKPGKSPQLLVYNAKTLAEGVPSRFSGSGSGTQFTLTISSLQPEDFATYYCQHHYVTPLTFGQGTKLEIKR
notes: Humanized, human IgG1 / kappa
- ELISA signal (human LIF protein [3]): 9730
- ELISA signal (human LIF protein [4]): 12000
- ELISA signal (human LIF protein [5]): 6270
- ELISA signal (human LIF protein [6]): 9150
- ELISA signal (human LIF protein [7]): 11300
- ELISA signal (human LIF protein [8]): 4870

B10: H3L3 (antibody, human IgG1, kappa, N297A, V domains shown)
VH: B9 VH with G42E, G44R
VL: B9 VL
notes: Humanized, human IgG1 / kappa
- ELISA signal (human LIF protein [3]): 9540
- ELISA signal (human LIF protein [4]): 11300
- ELISA signal (human LIF protein [5]): 6760
- ELISA signal (human LIF protein [6]): 8900
- ELISA signal (human LIF protein [7]): 11000
- ELISA signal (human LIF protein [8]): 5390

Continued, values first:

- Kd (human LIF protein [1]): 0.0233 nM
- koff (human LIF protein [1]): 1.57e-05 s⁻¹
- kon (human LIF protein [1]): 677000 M⁻¹ s⁻¹
- EC50 (read off the curve) (human LIF protein [2]): ~0.07 µg/mL
- ELISA signal (human LIF protein [3]): 10600
- ELISA signal (human LIF protein [4]): 11400
- ELISA signal (human LIF protein [5]): 6780
- ELISA signal (human LIF protein [6]): 8840
- ELISA signal (human LIF protein [7]): 10400
- ELISA signal (human LIF protein [8]): 4730
B1: 38E10E1C11 chimeric antibody (antibody, human IgG1, kappa)
heavy: not shown
light: DIHMTQSPASLSASVGETVTITCRASENIYSYLAWYQQKQGKSPQLLVYNAKTLAEGVPSRFSGSGSGTQFSLKINSLQPEDFGSYYCQHHYVTPLTFGAGTKLELKRTVAAPSVFIFPPSDEQLKSGTASVVCLLNNFYPREAKVQWKVDNALQSGNSQESVTEQDSKDSTYSLSSTLTLSKADYEKHKVYACEVTHQGLSSPVTKSFNRGEC
notes: Mouse variable regions of 38E10E1C11 with human IgG1 / kappa constant regions; also called 38E Chimeric; 38E chimeric antibody

- ELISA signal (human LIF protein [3]): 9630
- ELISA signal (human LIF protein [4]): 11800
- ELISA signal (human LIF protein [5]): 6440
- ELISA signal (human LIF protein [6]): 8750
- ELISA signal (human LIF protein [7]): 10800
- ELISA signal (human LIF protein [8]): 4980
B3: H1L3 (antibody, human IgG1, kappa, N297A, V domains shown)
VH: B9 VH with V5L, M93V
VL: B9 VL
notes: Humanized, human IgG1 / kappa

- ELISA signal (human LIF protein [3]): 9650
- ELISA signal (human LIF protein [4]): 12000
- ELISA signal (human LIF protein [5]): 6370
- ELISA signal (human LIF protein [6]): 8560
- ELISA signal (human LIF protein [7]): 10700
- ELISA signal (human LIF protein [8]): 5440
B4: H2L1 (antibody, human IgG1, kappa)
heavy: not shown
light: B2 light with H3Q
notes: Humanized, human IgG1 / kappa

- Kd (human LIF protein [1]): 0.0817 nM
- koff (human LIF protein [1]): 4.65e-05 s⁻¹
- kon (human LIF protein [1]): 569000 M⁻¹ s⁻¹
- EC50 (read off the curve) (human LIF protein [2]): ~0.07 µg/mL
- EC50 (read off the curve) (human LIF protein [9]): ~0.1 µg/mL
- ELISA signal (human LIF protein [3]): 9800
- ELISA signal (human LIF protein [4]): 11800
- ELISA signal (human LIF protein [5]): 6850
- ELISA signal (human LIF protein [6]): 9010
- ELISA signal (human LIF protein [7]): 10600
- ELISA signal (human LIF protein [8]): 5970
B7: 38E HuH1L1 (antibody, human IgG1, kappa, N297A)
heavy: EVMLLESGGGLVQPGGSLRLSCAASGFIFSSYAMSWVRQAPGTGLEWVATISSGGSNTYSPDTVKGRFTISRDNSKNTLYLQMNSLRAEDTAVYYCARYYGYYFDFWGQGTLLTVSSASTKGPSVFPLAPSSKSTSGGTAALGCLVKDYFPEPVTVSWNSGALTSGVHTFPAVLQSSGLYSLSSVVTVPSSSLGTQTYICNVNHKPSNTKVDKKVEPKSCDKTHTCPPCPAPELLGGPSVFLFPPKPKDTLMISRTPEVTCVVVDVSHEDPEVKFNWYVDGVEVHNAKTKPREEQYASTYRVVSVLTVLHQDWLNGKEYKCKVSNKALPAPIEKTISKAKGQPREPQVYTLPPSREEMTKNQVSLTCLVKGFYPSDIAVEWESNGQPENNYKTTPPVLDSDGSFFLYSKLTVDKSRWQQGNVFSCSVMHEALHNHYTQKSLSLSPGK
light: B2 light with H3Q
notes: Humanized, human IgG1 / kappa

- EC50 (read off the curve) (human LIF protein [2]): ~0.07 µg/mL
- EC50 (read off the curve) (human LIF protein [9]): ~0.3 µg/mL
- ELISA signal (human LIF protein [3]): 10500
- ELISA signal (human LIF protein [4]): 11900
- ELISA signal (human LIF protein [5]): 7320
- ELISA signal (human LIF protein [6]): 9700
- ELISA signal (human LIF protein [7]): 10900
- ELISA signal (human LIF protein [8]): 5670
B8: 38E HuH1L4 (antibody, human IgG1, kappa, N297A, V domains shown)
VH: B9 VH with V5L, M93V
VL: B9 VL with P40Q, T74K, S76N
notes: Humanized, human IgG1 / kappa

- EC50 (read off the curve) (human LIF protein [2]): ~0.07 µg/mL
- EC50 (read off the curve) (human LIF protein [9]): ~0.3 µg/mL
- ELISA signal (human LIF protein [3]): 10600
- ELISA signal (human LIF protein [4]): 11800
- ELISA signal (human LIF protein [5]): 6880
- ELISA signal (human LIF protein [6]): 9230
- ELISA signal (human LIF protein [7]): 10900
- ELISA signal (human LIF protein [8]): 5700
B11: 38E HuH2L4 (antibody, human IgG1, kappa, V domains shown)
VH: B9 VH
VL: B9 VL with P40Q, T74K, S76N
notes: Humanized, human IgG1 / kappa
